According to patent US20090227507A1, “Angiotensin (1-7) Dosage Forms and Uses Thereof” (UNIVERSITY OF SOUTHERN CALIFORNIA, priority 2008, published 2009):

Experiment: Hematology profile (CBC with differential, platelet count) in healthy men;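 on Platelet Count, Median Change from Baseline: Thousands of platelets per mm³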;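 on Platelet Count, Median: Thousands of platelets per mm³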
Format: in vivo, human
Description: Pharmacological Effect: The following evaluations (under efficacy and safety in the protocol) were performed: • Effects on the number of mature blood cells: • 1. CBC (with differential), platelet count, reticulocyte count. • Effects on early hematopoietic progenitor cells and mature lymphocyte subsets in the periphery: • 1. Flow cytometry to evaluate frequency of peripheral blood progenitor cells (eg, CD34^+) and lymphocyte subsets (eg, CD3, CD4, CD8) in peripheral blood. • 2. Collection of blood for later possible culture for progenitor cells (eg, colony forming units-granulocyte/macrophage [CFU-GM]) to evaluate potential effects on CD34^+ hematopoietic progenitor cells in peripheral blood. • 3.
The effect of USB003 on the number of mature blood cells was assessed by the complete blood count with differential, platelet and reticulocyte counts. The effects on early hematopoietic progenitor cells and mature lymphocyte subsets in the periphery were assessed by flow cytometry. In addition, blood was collected and processed to enable culture of progenitors at a later time.
Red blood cell (RBC) count, RBC indices, white blood cell count (WBC) with differential, reticulocyte count, platelet count, hemoglobin (Hb), hematocrit (Hct), plasma hemoglobin, peripheral flow cytometry, including CD34^+, flow cytometry for enumeration of CD3, CD4, and CD8 lymphocytes, and culture for progenitor cells in peripheral blood including colony-forming units-granulocyte/macrophage (CFU-GM).

[1] = 200 μg/kg, N = 9, baseline to Day 8
[2] = 200 μg/kg, N = 9, baseline to Day 20
[3] = 300 μg/kg, N = 8, baseline to Day 8

Asp-Arg-Val-Tyr-Ile-His-Pro [USB003]
absolute neutrophil concentrations (200 ug/kg and 300 ug/kg, at 20 days): apparent dose-related increase | shifts in eosinophils from high at baseline to normal (200 μg/kg dose group, Day 8 and Day 20, compared with placebo): notable number of subjects | Absolute Eosinophils shift H-N, number of subjects [1]: 1 | Absolute Eosinophils shift L-N, number of subjects [1]: — (“—” = 0) | Absolute Eosinophils shift N-H, number of subjects [1]: — (“—” = 0) | Absolute Eosinophils shift N-L, number of subjects [1]: — (“—” = 0) | Absolute Reticulocytes shift H-N, number of subjects [1]: — (“—” = 0) | Absolute Reticulocytes shift L-N, number of subjects [1]: — (“—” = 0) | Absolute Reticulocytes shift N-H, number of subjects [1]: — (“—” = 0) | Absolute Reticulocytes shift N-L, number of subjects [1]: — (“—” = 0) | Eosinophils shift H-N, number of subjects [1]: 3 | Eosinophils shift L-N, number of subjects [1]: — (“—” = 0) | Eosinophils shift N-H, number of subjects [1]: — (“—” = 0) | Eosinophils shift N-L, number of subjects [1]: — (“—” = 0) | Hematocrit shift H-N, number of subjects [1]: — (“—” = 0) | Hematocrit shift L-N, number of subjects [1]: — (“—” = 0) | Hematocrit shift N-H, number of subjects [1]: — (“—” = 0) | Hematocrit shift N-L, number of subjects [1]: — (“—” = 0) | Hemoglobin shift H-N, number of subjects [1]: — (“—” = 0) | Hemoglobin shift L-N, number of subjects [1]: — (“—” = 0) | Hemoglobin shift N-H, number of subjects [1]: — (“—” = 0) | Hemoglobin shift N-L, number of subjects [1]: — (“—” = 0) | Lymphocytes shift H-N, number of subjects [1]: 1 | Lymphocytes shift L-N, number of subjects [1]: 1 | Lymphocytes shift N-H, number of subjects [1]: — (“—” = 0) | Lymphocytes shift N-L, number of subjects [1]: — (“—” = 0) | Plasma Hemoglobin shift H-N, number of subjects [1]: — (“—” = 0) | Plasma Hemoglobin shift L-N, number of subjects [1]: — (“—” = 0) | Plasma Hemoglobin shift N-H, number of subjects [1]: — (“—” = 0) | Plasma Hemoglobin shift N-L, number of subjects [1]: — (“—” = 0) | Platelet Count shift H-N, number of subjects [1]: — (“—” = 0) | Platelet Count shift L-N, number of subjects [1]: — (“—” = 0) | Platelet Count shift N-H, number of subjects [1]: 1 | Platelet Count shift N-L, number of subjects [1]: — (“—” = 0) | RBC shift H-N, number of subjects [1]: — (“—” = 0) | RBC shift L-N, number of subjects [1]: — (“—” = 0) | RBC shift N-H, number of subjects [1]: — (“—” = 0) | RBC shift N-L, number of subjects [1]: — (“—” = 0) | Segmented Neutrophils shift H-N, number of subjects [1]: 1 | Segmented Neutrophils shift L-N, number of subjects [1]: — (“—” = 0) | Segmented Neutrophils shift N-H, number of subjects [1]: — (“—” = 0) | Segmented Neutrophils shift N-L, number of subjects [1]: — (“—” = 0) | Absolute Eosinophils shift H-N, number of subjects [2]: — (“—” = 0) | Absolute Eosinophils shift L-N, number of subjects [2]: — (“—” = 0) | Absolute Eosinophils shift N-H, number of subjects [2]: 1 | Absolute Eosinophils shift N-L, number of subjects [2]: — (“—” = 0) | Absolute Neutrophils shift H-N, number of subjects [2]: — (“—” = 0) | Absolute Neutrophils shift L-N, number of subjects [2]: — (“—” = 0) | Absolute Neutrophils shift N-H, number of subjects [2]: — (“—” = 0) | Absolute Neutrophils shift N-L, number of subjects [2]: — (“—” = 0) | Absolute Reticulocytes shift H-N, number of subjects [2]: — (“—” = 0) | Absolute Reticulocytes shift L-N, number of subjects [2]: — (“—” = 0) | Absolute Reticulocytes shift N-H, number of subjects [2]: 2 | Absolute Reticulocytes shift N-L, number of subjects [2]: — (“—” = 0) | Eosinophils shift H-N, number of subjects [2]: 2 | Eosinophils shift L-N, number of subjects [2]: — (“—” = 0) | Eosinophils shift N-H, number of subjects [2]: — (“—” = 0) | Eosinophils shift N-L, number of subjects [2]: — (“—” = 0) | Hematocrit shift H-N, number of subjects [2]: — (“—” = 0) | Hematocrit shift L-N, number of subjects [2]: — (“—” = 0) | Hematocrit shift N-H, number of subjects [2]: — (“—” = 0) | Hematocrit shift N-L, number of subjects [2]: — (“—” = 0) | Hemoglobin shift H-N, number of subjects [2]: — (“—” = 0) | Hemoglobin shift L-N, number of subjects [2]: 1 | Hemoglobin shift N-H, number of subjects [2]: — (“—” = 0) | Hemoglobin shift N-L, number of subjects [2]: 1 | Lymphocytes shift H-N, number of subjects [2]: — (“—” = 0) | Lymphocytes shift L-N, number of subjects [2]: 1 | Lymphocytes shift N-H, number of subjects [2]: — (“—” = 0) | Lymphocytes shift N-L, number of subjects [2]: — (“—” = 0) | Monocytes shift H-N, number of subjects [2]: — (“—” = 0) | Monocytes shift L-N, number of subjects [2]: — (“—” = 0) | Monocytes shift N-H, number of subjects [2]: — (“—” = 0) | Monocytes shift N-L, number of subjects [2]: — (“—” = 0) | Plasma Hemoglobin shift H-N, number of subjects [2]: — (“—” = 0) | Plasma Hemoglobin shift L-N, number of subjects [2]: — (“—” = 0) | Plasma Hemoglobin shift N-H, number of subjects [2]: 2 | Plasma Hemoglobin shift N-L, number of subjects [2]: — (“—” = 0) | Platelet Count shift H-N, number of subjects [2]: — (“—” = 0) | Platelet Count shift L-N, number of subjects [2]: — (“—” = 0) | Platelet Count shift N-H, number of subjects [2]: 1 | Platelet Count shift N-L, number of subjects [2]: — (“—” = 0) | RBC shift H-N, number of subjects [2]: — (“—” = 0) | RBC shift L-N, number of subjects [2]: — (“—” = 0) | RBC shift N-H, number of subjects [2]: — (“—” = 0) | RBC shift N-L, number of subjects [2]: — (“—” = 0) | RDW shift H-N, number of subjects [2]: — (“—” = 0) | RDW shift L-N, number of subjects [2]: — (“—” = 0) | RDW shift N-H, number of subjects [2]: 1 | RDW shift N-L, number of subjects [2]: — (“—” = 0) | Segmented Neutrophils shift H-N, number of subjects [2]: 1 | Segmented Neutrophils shift L-N, number of subjects [2]: — (“—” = 0) | Segmented Neutrophils shift N-H, number of subjects [2]: — (“—” = 0) | Segmented Neutrophils shift N-L, number of subjects [2]: — (“—” = 0) | WBC shift H-N, number of subjects [2]: — (“—” = 0) | WBC shift L-N, number of subjects [2]: — (“—” = 0) | WBC shift N-H, number of subjects [2]: — (“—” = 0) | WBC shift N-L, number of subjects [2]: — (“—” = 0) | Absolute Neutrophils, Median (200 μg/kg, Baseline): 3.00 thousands/mm^3 | Hematocrit, Median (200 μg/kg, Baseline): 46.50% | Hemoglobin, Median (200 μg/kg, Baseline): 15.30 g/dL | Lymphocytes, Median (200 μg/kg, Baseline): 35.80% | Platelet Count, Median (200 μg/kg, Baseline): 263.0 thousands/mm^3 | WBC, Median (200 μg/kg, Baseline): 5.60 thousands/mm^3 | Absolute Neutrophils, Median (200 μg/kg, Day 8): 3.60 thousands/mm^3 | Absolute Neutrophils, Median Change from Baseline (200 μg/kg, Day 8): 0.45 thousands/mm^3 | Hematocrit, Median (200 μg/kg, Day 8): 43.65% | Hematocrit, Median Change from Baseline (200 μg/kg, Day 8): −1.65% | Hemoglobin, Median (200 μg/kg, Day 8): 15.10 g/dL | Hemoglobin, Median Change from Baseline (200 μg/kg, Day 8): -0.20 g/dL | Lymphocytes, Median (200 μg/kg, Day 8): 32.40% | Lymphocytes, Median Change from Baseline (200 μg/kg, Day 8): −2.25% | Platelet Count, Median (200 μg/kg, Day 8): 242.0 thousands/mm^3 | Platelet Count, Median Change from Baseline (200 μg/kg, Day 8): 1.0 thousands/mm^3 | WBC, Median (200 μg/kg, Day 8): 6.65 thousands/mm^3 | WBC, Median Change from Baseline (200 μg/kg, Day 8): 0.35 thousands/mm^3 | Absolute Neutrophils, Median (200 μg/kg, Day 20): 3.80 thousands/mm^3 | Absolute Neutrophils, Median Change from Baseline (200 μg/kg, Day 20): 0.20 thousands/mm^3 | Hematocrit, Median (200 μg/kg, Day 20): 43.80% | Hematocrit, Median Change from Baseline (200 μg/kg, Day 20): −1.50% | Hemoglobin, Median (200 μg/kg, Day 20): 14.50 g/dL | Hemoglobin, Median Change from Baseline (200 μg/kg, Day 20): -0.70 g/dL | Lymphocytes, Median (200 μg/kg, Day 20): 31.50% | Lymphocytes, Median Change from Baseline (200 μg/kg, Day 20): −1.80% | Platelet Count, Median (200 μg/kg, Day 20): 250.0 thousands/mm^3 | Platelet Count, Median Change from Baseline (200 μg/kg, Day 20): −5 thousands/mm^3 | WBC, Median (200 μg/kg, Day 20): 6.20 thousands/mm^3 | WBC, Median Change from Baseline (200 μg/kg, Day 20): 0.40 thousands/mm^3 | WBC concentration (300 ug/kg group, at 20 days): relative increase | Absolute Eosinophils shift H-N, number of subjects [3]: — (“—” = 0) | Absolute Eosinophils shift L-N, number of subjects [3]: — (“—” = 0) | Absolute Eosinophils shift N-H, number of subjects [3]: — (“—” = 0) | Absolute Eosinophils shift N-L, number of subjects [3]: — (“—” = 0) | Absolute Reticulocytes shift H-N, number of subjects [3]: — (“—” = 0) | Absolute Reticulocytes shift L-N, number of subjects [3]: — (“—” = 0) | Absolute Reticulocytes shift N-H, number of subjects [3]: 1 | Absolute Reticulocytes shift N-L, number of subjects [3]: — (“—” = 0) | Eosinophils shift H-N, number of subjects [3]: 1
